The text below walks through data of PMC4954698.

Assay [1] concerns the target Glutamate decarboxylase (GAD) from Escherichia coli K12, produced without pyridoxine hydrochloride supplementation (GAD-C) (E. coli str. K12 substr. MG1655) (UniProt P69910). As to the kind of experiment: SEC; Superdex 200 10/300GL, 20 mM citric acid-Na2HPO4 buffer pH 6.5 with 0.15 mM PLP, 0.4 mL/min, calibrated with molecular weight standards; native molecular weight about 324 kDa. A general note: In gel filtration, larger molecules generally elute earlier.

Assay [2] has as its target Glutamate decarboxylase (GAD) from Escherichia coli K12, produced in media supplemented with pyridoxine hydrochloride (GAD-V) (E. coli str. K12 substr. MG1655) (UniProt P69910). Described as above.

In assay [1], “Glutamate decarboxylase (GAD) from Escherichia coli K12, produced without pyridoxine hydrochloride supplementation (GAD-C) (from UniProt P69910 1-466) (enzyme)” registered a stoichiometry N of 6. In the case of “Glutamate decarboxylase (GAD) from Escherichia coli K12, produced in media supplemented with pyridoxine hydrochloride (GAD-V) (from UniProt P69910 1-466) (enzyme)”, the stoichiometry N in assay [2] amounted to 6.

By stoichiometry N is commonly meant the number of molecules, sites or subunits per partner or assembly.
